This is an account of results in publication PMC8482623 (Nature structural & molecular biology, 2020).

As usually defined, the stoichiometry N is the number of molecules, sites or subunits per partner or assembly.

This series deals with the molecule itself. Kind of series: crystal structure.

B1: truncated mouse Bcs1 lacking the TM and Bcs1-specific domains (ΔNmBcs1, residues 151-418) (domain or fragment)
chain: not shown
In the case of B1, the “stoichiometry N” value was found to be 7.
